± gives the uncertainty stated by the source.
Assay: self-splicing fitness, log relative to wild type (ln ratio); higher = more splicing; Tetrahymena group I intron in knt gene, E. coli kanamycin selection, DiMSum; sequences stand for … in CUCUCU…GGAGGGAAAAGUUAUCAGGCAUGCACCUGGUAGCUAGUCUUUAAACCAAUAGAUUGCAUCGGUUUAAAAGGCAAGACCGUCAAAUUGCGGGAAAGGGGUCAACAGCCGUUCAGUACCAAGUCUCAGGGGAAACUUUGAGAUGGCCUUGCAAAGGGUAUGGUAAUAAGCUGACGGACAUGGUCCUAACCACGCAGCCAAGUCCUAAGUCAACAGAUCUUCUGUUGAUAUGGAUGCAGUUCACAGACUAAAUGUCGGUCGGGGAAGAUGUAUUCUUCUCAUAAGAUAUAGUCGGACCUCUCCUUAAUGGGAGCUAGCGGAUGAAGUGAUGCAACACUGGAGCCGCUGGGAACUAAUUUGUAUGCGAAAGUAUAUUGAUUAGUUUUGGAGUACUCGUGGUCG
In short: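 Library with all eight P1ex-region intron nucleotides randomised, intron inside the knt kanamycin-resistance gene on pET-22b(+), in E. coli BL21(DE3). Cells grew overnight at 37°C or 30°C on LB agar with or without 25 μg/mL kanamycin (plus 100 μg/mL carbenicillin, 50 μM IPTG, 0.2% rhamnose), in six replicate transformations. Pooled colonies were amplicon-sequenced on Illumina HiSeq 2500. DiMSum fitness is the error-weighted combination of wild-type-normalised replicate fold changes, kanamycin versus none.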

GUCCAGCAAUAUUACGAUCA
self-splicing fitness (ln) (30 °C): -0.611 ± 0.12 | self-splicing fitness (ln) (37 °C): -0.93 ± 0.13

GUCCAGCAAUAUUACGCAAG
self-splicing fitness (ln) (30 °C): -1.32 ± 0.12 | self-splicing fitness (ln) (37 °C): -1.28 ± 0.14

GUCCAGCAAUAUUACGCAGC
self-splicing fitness (ln) (30 °C): -0.998 ± 0.17 | self-splicing fitness (ln) (37 °C): 0.198 ± 0.14

GUCCAGCAAUAUUACGCCAA
self-splicing fitness (ln) (30 °C): -2.63 ± 0.18 | self-splicing fitness (ln) (37 °C): -2.72 ± 0.16

GUCCAGCAAUAUUACGCCAC
self-splicing fitness (ln) (30 °C): -2.51 ± 0.44

GUCCAGCAAUAUUACGCCUU
self-splicing fitness (ln) (30 °C): -0.571 ± 0.1 | self-splicing fitness (ln) (37 °C): -0.309 ± 0.11

GUCCAGCAAUAUUACGCUCC
self-splicing fitness (ln) (30 °C): -0.889 ± 0.17 | self-splicing fitness (ln) (37 °C): -0.563 ± 0.2

GUCCAGCAAUAUUACGCUUA
self-splicing fitness (ln) (30 °C): -0.882 ± 0.067 | self-splicing fitness (ln) (37 °C): -0.314 ± 0.07

GUCCAGCAAUAUUACGGAGG
self-splicing fitness (ln) (30 °C): -1.76 ± 0.06 | self-splicing fitness (ln) (37 °C): -1.17 ± 0.078

GUCCAGCAAUAUUACGGCCG
self-splicing fitness (ln) (30 °C): -3.67 ± 0.24 | self-splicing fitness (ln) (37 °C): -2.69 ± 0.19

GUCCAGCAAUAUUACGGCGA
self-splicing fitness (ln) (30 °C): -1.32 ± 0.12 | self-splicing fitness (ln) (37 °C): -0.997 ± 0.14

GUCCAGCAAUAUUACGGCUG
self-splicing fitness (ln) (30 °C): -3.93 ± 0.31 | self-splicing fitness (ln) (37 °C): -3.61 ± 0.39

GUCCAGCAAUAUUACGGUAC
self-splicing fitness (ln) (30 °C): -2.97 ± 0.18 | self-splicing fitness (ln) (37 °C): -1.92 ± 0.17

GUCCAGCAAUAUUACGGUCG
self-splicing fitness (ln) (30 °C): -0.533 ± 0.071 | self-splicing fitness (ln) (37 °C): -0.131 ± 0.097

GUCCAGCAAUAUUACGGUGA
self-splicing fitness (ln) (30 °C): -0.608 ± 0.051 | self-splicing fitness (ln) (37 °C): -0.131 ± 0.071

GUCCAGCAAUAUUACGGUGG
self-splicing fitness (ln) (30 °C): -3.36 ± 0.15 | self-splicing fitness (ln) (37 °C): -2.71 ± 0.12

GUCCAGCAAUAUUACGUACA
self-splicing fitness (ln) (30 °C): -1.73 ± 0.1 | self-splicing fitness (ln) (37 °C): -0.367 ± 0.1

GUCCAGCAAUAUUACGUCCG
self-splicing fitness (ln) (30 °C): -4.42 ± 0.29 | self-splicing fitness (ln) (37 °C): -0.283 ± 0.22

GUCCAGCAAUAUUACGUCGC
self-splicing fitness (ln) (30 °C): -0.994 ± 0.096 | self-splicing fitness (ln) (37 °C): 0.0208 ± 0.12

GUCCAGCAAUAUUACGUCGG
self-splicing fitness (ln) (30 °C): -3.83 ± 0.41 | self-splicing fitness (ln) (37 °C): -1.39 ± 0.2

GUCCAGCAAUAUUACGUCUG
self-splicing fitness (ln) (30 °C): -3.8 ± 0.47 | self-splicing fitness (ln) (37 °C): -2.47 ± 0.33

— the supplement of paper PMC7877785
